Results: patent US20190040142A1 (Genentech, published 2019)

T1: Rat KLB (limits assumed)
T1 construct: also called rat Klotho-beta
T1 single chain: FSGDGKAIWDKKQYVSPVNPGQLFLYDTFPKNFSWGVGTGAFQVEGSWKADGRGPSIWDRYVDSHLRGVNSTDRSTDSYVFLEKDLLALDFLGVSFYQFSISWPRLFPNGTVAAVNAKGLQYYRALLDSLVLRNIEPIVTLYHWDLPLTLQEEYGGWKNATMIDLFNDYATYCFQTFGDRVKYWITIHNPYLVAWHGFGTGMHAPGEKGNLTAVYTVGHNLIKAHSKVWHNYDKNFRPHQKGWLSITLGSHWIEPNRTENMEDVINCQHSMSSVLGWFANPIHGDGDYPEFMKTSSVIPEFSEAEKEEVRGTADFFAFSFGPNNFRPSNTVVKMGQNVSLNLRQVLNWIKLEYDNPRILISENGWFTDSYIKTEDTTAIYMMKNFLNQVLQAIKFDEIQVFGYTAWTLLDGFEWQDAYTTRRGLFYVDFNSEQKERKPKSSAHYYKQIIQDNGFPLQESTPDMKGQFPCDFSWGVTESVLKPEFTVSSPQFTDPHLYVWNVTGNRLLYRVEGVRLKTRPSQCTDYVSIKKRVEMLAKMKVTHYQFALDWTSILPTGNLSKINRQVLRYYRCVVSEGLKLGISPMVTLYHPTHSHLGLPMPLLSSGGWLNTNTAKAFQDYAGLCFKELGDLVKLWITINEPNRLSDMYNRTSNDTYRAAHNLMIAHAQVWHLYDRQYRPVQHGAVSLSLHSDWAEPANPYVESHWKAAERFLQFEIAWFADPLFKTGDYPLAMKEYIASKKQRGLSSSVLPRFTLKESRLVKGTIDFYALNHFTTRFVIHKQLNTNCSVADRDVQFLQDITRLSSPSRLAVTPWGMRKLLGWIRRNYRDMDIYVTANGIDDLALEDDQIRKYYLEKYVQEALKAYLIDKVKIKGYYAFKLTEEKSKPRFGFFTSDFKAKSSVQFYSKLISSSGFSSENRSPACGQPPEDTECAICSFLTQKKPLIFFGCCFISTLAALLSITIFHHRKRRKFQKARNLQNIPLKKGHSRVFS

B1: anti-KLB antibody clone 28B7 in tri-chain IgG format (antibody)
chain 1: DIVMTQSPSSLAVSVGEKVTLSCKSGQSLLYSRNQKNYLAWYQQKPGQSPKLLISWASTRESGVPDRFTGSGSGTDFTLTISSVKTEDLAVYHCQQYYSYPYTFGGGTRLEIKRGGGGSGGGGSGGGGSGGGGSEVQLQQSGPELVQPGTSVKISCEASGYTFTDYYINWVKQSRGKSLEWIGDINPNNGDTTYNQKFKAKATLTVDRSSNTAYMELRSLTSEDSVVYYCARRFYSSPFDSWGQGTTLTVSS
chain 2: not shown
notes: VL-linker-VH-CH1-CH2-CH3 (VLfH) plus a separate CL domain disulfide-bonded to CH1; also called 28B7 tcIgG; 28B7 tcIgG1; not shown: human IgG1 heavy chain constant region (CH1-hinge-CH2-CH3); monospecific tcIgG were made by c
B2: anti-KLB monoclonal antibody 28B7 (antibody, IgG1, V domains shown)
VH: EVQLQQSGPELVQPGTSVKISCEASGYTFTDYYINWVKQSRGKSLEWIGDINPNNGDTTYNQKFKAKATLTVDRSSNTAYMELRSLTSEDSVVYYCARRFYSSPFDSWGQGTTLTVSS
VL: DIVMTQSPSSLAVSVGEKVTLSCKSGQSLLYSRNQKNYLAWYQQKPGQSPKLLISWASTRESGVPDRFTGSGSGTDFTLTISSVKTEDLAVYHCQQYYSYPYTFGGGTRLEIK
notes: also called clone 28B7; 28B7 IgG

Legend:
[1] = target: T2, recombinant human KLB (soluble protein) (human, UniProt Q86Z14 53-997, limits assumed); assay: SPR, Biacore T200, antibody captured on Protein A chip, monomeric human KLB as analyte, 25 C; mean ± range of two experiments
T2 construct: also called monomeric human KLB; recombinant KLB
Protocol: (§1) For binding affinity determination of tcIgG and traditional IgG, surface plasmon resonance (SPR) measurements using a BIAcore T200 and ProteinA sensor chip was used and dilutions of monomeric human KLB as analyte were injected over the immobilized tcIgG or traditional IgG at 25° C. to determine monovalent affinities. Association rates (kon) and dissociation rates (koff) were calculated using a simple one-to-one Langmuir binding model. The equilibrium dissociation constant (Kd) was calculated as the ratio koff/kon.

[2] = target: T2, recombinant human KLB (soluble protein); assay: SPR (BIAcore T200), antibody captured on Protein A chip, monomeric human KLB as analyte, 25 C, 1:1 Langmuir fit
Protocol: as §1

[3] = target: T2, recombinant human KLB (soluble protein); assay: binding affinity test of Example 7 (FIG. 21); method not restated, presumably the Biacore assay of Example 6; text of Example 7 (FIG. 21); Table 9 prints 2.06 ± 0.11 nM
Protocol: as §1

Rat KLB = target: T1, Rat KLB; assay: FACS, HEK293T cells expressing human/rat KLB chimeric proteins; summary table of + and - by epitope bin
[4] = target: T2, recombinant human KLB (soluble protein); assay: SPR, Biacore T200, antibody captured on Protein A chip, monomeric human KLB as analyte, 25 C; mean of two experiments
Protocol: as §1

Binder | Kd [1] | koff [1] | kon [1] | kon [2] | Kd [3] | binding result (Rat KLB) | kon [4]
B1 | 2.06 nM | 0.000244 s⁻¹ | 117000 M⁻¹ s⁻¹ | 119000 M⁻¹ s⁻¹ | 2.05 nM |  | 
B2 | 2.65 nM | 0.000276 s⁻¹ |  | 104000 M⁻¹ s⁻¹ |  | no binding (tested: not given) | 104000 M⁻¹ s⁻¹
